Assay results as given in patent US20240360227A1.

Columns and labels:
[1] = target: Recombinant human his-tagged IGF R extracellular domain protein (human) (UniProt P08069); experiment: SPR, Ab captured via anti-huIgG Fc, pH 7.4
[2] = target: Recombinant human his-tagged IGF R extracellular domain protein (human) (UniProt P08069); experiment: SPR, Ab captured via anti-huIgG Fc, dissociation at pH 6

Binder	Kd [1] [nM]	koff [1] [s⁻¹]	kon [1] [M⁻¹ s⁻¹]	Kd [2] [nM]	koff [2] [s⁻¹]	kon [2] [M⁻¹ s⁻¹]
VRDN-02055 (antibody, V domains shown) VH: QVQLQESGPGLVKPSETLSLTCTVSGYSITGGYLWNWIRQPPGKGLEWIGYISYDGTNNYKPSLKDRVTISRDTSKNQFSLKLSSVTAADTAVYYCARYGRVFFDYWGQGTLVTVSS VL: DIVMTQSPLSLPVTPGEPASISCRSSQSIVHSNGNTYLQWYLQKPGQSPQLLIYKVSNRLYGVPDRFSGSGSGTDFTLKISRVEAEDVGVYYCFQGSHHPWTFGQGTKVEIK	0.509	4.92e-05	96600	1.1	0.000101	91800
VRDN-02056 (antibody, V domains shown) VH: QVQLQESGPGLVKPSETLSLTCTVSGYSITGGYLWNWIRQPPGKGLEWIGYISYDGTNNYKPSLKDRVTISRDTSKNQFSLKLSSVTAADTAVYYCARYGRVFFDYWGQGTLVTVSS VL: DIVMTQSPLSLPVTPGEPASISCRSSQSIVHSNGNTYLQWYLQKPGQSPQLLIYKVSNRLYGVPDRFSGSGSGTDFTLKISRVEAEDVGVYYCFQGSHVHWTFGQGTKVEIK	0.237	1.98e-05	83500	1.13	9.75e-05	86000
VRDN-02060 (antibody, V domains shown) VH: QVQLQESGPGLVKPSETLSLTCTVSGYSITGGYLWNWIRQPPGKGLEWIGYISYHGTNNYKPSLKDRVTISRDTSKNQFSLKLSSVTAADTAVYYCARYGRVFFDYWGQGTLVTVSS VL: DIVMTQSPLSLPVTPGEPASISCRSHQSIVHSNGNTYLQWYLQKPGQSPQLLIYKVSNRLYGVPDRFSGSGSGTDFTLKISRVEAEDVGVYYCFQGSHVPWTFGQGTKVEIK	0.249	2.77e-05	111000	0.394	6.07e-05	154000
VRDN-02068 (antibody, V domains shown) VH: QVQLQESGPGLVKPSETLSLTCTVSGYSITGGYLWNWIRQPPGKGLEWIGYIHYDGTNNYKPSLKDRVTISRDTSKNQFSLKLSSVTAADTAVYYCARYGRVFFDYWGQGTLVTVSS VL: DIVMTQSPLSLPVTPGEPASISCRSSQSIVHSNGNTYLQWYLQKPGQSPQLLIYKVSNRLYGVPDRFSGSGSGTDFTLKISRVEAEDVGVYYCFQGSHVPHTFGQGTKVEIK	0.249	2.87e-05	115000	0.376	6.53e-05	174000
VRDN-02069 (antibody, V domains shown) VH: QVQLQESGPGLVKPSETLSLTCTVSGYSITGGYLWNWIRQPPGKGLEWIGYISYHGTNNYKPSLKDRVTISRDTSKNQFSLKLSSVTAADTAVYYCARYGRVFFDYWGQGTLVTVSS VL: DIVMTQSPLSLPVTPGEPASISCRSSQSIVHSNGNTYLQWYLQKPGQSPQLLIYKVSNRLYGVPDRFSGSGSGTDFTLKISRVEAEDVGVYYCFQGSHVPHTFGQGTKVEIK	0.137	1.52e-05	111000	0.325	5.59e-05	172000
VRDN-02063 (antibody, V domains shown) VH: QVQLQESGPGLVKPSETLSLTCTVSGYSITGGYLWNWIRQPPGKGLEWIGYISYHGTNNYKPSLKDRVTISRDTSKNQFSLKLSSVTAADTAVYYCARYGRVFFDYWGQGTLVTVSS VL: DIVMTQSPLSLPVTPGEPASISCRSSQSIVHSNGNTYLQWYLQKPGQSPQLLIYKVSNRLYGVPDRFSGSGSGTDFTLKISRVEAEDVGVYYCFHGSHVPWTFGQGTKVEIK	0.19	2.11e-05	111000	0.284	3.97e-05	140000
VRDN-02058 (antibody, V domains shown) VH: QVQLQESGPGLVKPSETLSLTCTVSGYSITGGYLWNWIRQPPGKGLEWIGYISYDGTNNYKPSLKDRVTISRDTSKNQFSLKLSSVTAADTAVYYCARYGRVFFDYWGQGTLVTVSS VL: DIVMTQSPLSLPVTPGEPASISCRSSQSIVHSNGNTYLQWYLQKPGQSPQLLIYKVSNRLYGVPDRFSGSGSGTDFTLKISRVEAEDVGVYYCFQGSHVPWHFGQGTKVEIK	0.836	8.5e-05	102000	1.18	9.52e-05	80800
VRDN-02061 (antibody, V domains shown) VH: QVQLQESGPGLVKPSETLSLTCTVSGYSITGGYLWNWIRQPPGKGLEWIGYISYDGTNNYKPSLKDRVTISRDTSKNQFSLKLSSVTAADTAVYYCARHGRVFFDYWGQGTLVTVSS VL: DIVMTQSPLSLPVTPGEPASISCRSHQSIVHSNGNTYLQWYLQKPGQSPQLLIYKVSNRLYGVPDRFSGSGSGTDFTLKISRVEAEDVGVYYCFQGSHVPWTFGQGTKVEIK	0.28	2.65e-05	94700	0.299	4.34e-05	145000
VRDN-02006 (antibody, V domains shown) VH: QVQLQESGPGLVKPSETLSLTCTVSGYSITHGYLWNWIRQPPGKGLEWIGYISYDGTNNYKPSLKDRVTISRDTSKNQFSLKLSSVTAADTAVYYCARYGRVFFDYWGQGTLVTVSS VL: DIVMTQSPLSLPVTPGEPASISCRSSQSIVHSNGNTYLQWYLQKPGQSPQLLIYKVSNRLYGVPDRFSGSGSGTDFTLKISRVEAEDVGVYYCFQGSHVPWTFGQGTKVEIK	1.08	8.49e-05	78500	1.1	0.000101	92300
VRDN-02070 (antibody, V domains shown) VH: QVQLQESGPGLVKPSETLSLTCTVSGYSITGGYLWNWIRQPPGKGLEWIGYISYDGTNNYKPSLKDRVTISRDTSKNQFSLKLSSVTAADTAVYYCARHGRVFFDYWGQGTLVTVSS VL: DIVMTQSPLSLPVTPGEPASISCRSSQSIVHSNGNTYLQWYLQKPGQSPQLLIYKVSNRLYGVPDRFSGSGSGTDFTLKISRVEAEDVGVYYCFQGSHVPHTFGQGTKVEIK	0.322	3.38e-05	105000	0.335	5.29e-05	158000
VRDN-02062 (antibody, V domains shown) VH: QVQLQESGPGLVKPSETLSLTCTVSGYSITGGYLWNWIRQPPGKGLEWIGYIHYDGTNNYKPSLKDRVTISRDTSKNQFSLKLSSVTAADTAVYYCARYGRVFFDYWGQGTLVTVSS VL: DIVMTQSPLSLPVTPGEPASISCRSSQSIVHSNGNTYLQWYLQKPGQSPQLLIYKVSNRLYGVPDRFSGSGSGTDFTLKISRVEAEDVGVYYCFHGSHVPWTFGQGTKVEIK	0.225	2.13e-05	94300	0.166	2.82e-05	170000
VRDN-02066 (antibody, V domains shown) VH: QVQLQESGPGLVKPSETLSLTCTVSGYSITGGYLWNWIRQPPGKGLEWIGYISYHGTNNYKPSLKDRVTISRDTSKNQFSLKLSSVTAADTAVYYCARYGRVFFDYWGQGTLVTVSS VL: DIVMTQSPLSLPVTPGEPASISCRSSQSIVHSNGNTYLQWYLQKPGQSPQLLIYKVSNRLYGVPDRFSGSGSGTDFTLKISRVEAEDVGVYYCFQGSHVHWTFGQGTKVEIK	0.278	3.12e-05	112000	0.296	5.14e-05	174000
VRDN-02067 (antibody, V domains shown) VH: QVQLQESGPGLVKPSETLSLTCTVSGYSITGGYLWNWIRQPPGKGLEWIGYISYDGTNNYKPSLKDRVTISRDTSKNQFSLKLSSVTAADTAVYYCARHGRVFFDYWGQGTLVTVSS VL: DIVMTQSPLSLPVTPGEPASISCRSSQSIVHSNGNTYLQWYLQKPGQSPQLLIYKVSNRLYGVPDRFSGSGSGTDFTLKISRVEAEDVGVYYCFQGSHVHWTFGQGTKVEIK	0.25	2.75e-05	110000	0.31	5.44e-05	175000
VRDN-02057 (antibody, V domains shown) VH: QVQLQESGPGLVKPSETLSLTCTVSGYSITGGYLWNWIRQPPGKGLEWIGYISYDGTNNYKPSLKDRVTISRDTSKNQFSLKLSSVTAADTAVYYCARYGRVFFDYWGQGTLVTVSS VL: DIVMTQSPLSLPVTPGEPASISCRSSQSIVHSNGNTYLQWYLQKPGQSPQLLIYKVSNRLYGVPDRFSGSGSGTDFTLKISRVEAEDVGVYYCFQGSHVPHTFGQGTKVEIK	0.72	6.9e-05	95800	1.4	0.000165	118000
VRDN-02065 (antibody, V domains shown) VH: QVQLQESGPGLVKPSETLSLTCTVSGYSITGGYLWNWIRQPPGKGLEWIGYIHYDGTNNYKPSLKDRVTISRDTSKNQFSLKLSSVTAADTAVYYCARYGRVFFDYWGQGTLVTVSS VL: DIVMTQSPLSLPVTPGEPASISCRSSQSIVHSNGNTYLQWYLQKPGQSPQLLIYKVSNRLYGVPDRFSGSGSGTDFTLKISRVEAEDVGVYYCFQGSHVHWTFGQGTKVEIK	0.22	2.54e-05	116000	0.232	4.83e-05	208000
VRDN-02071 (antibody, V domains shown) VH: QVQLQESGPGLVKPSETLSLTCTVSGYSITGGYLWNWIRQPPGKGLEWIGYIHYDGTNNYKPSLKDRVTISRDTSKNQFSLKLSSVTAADTAVYYCARHGRVFFDYWGQGTLVTVSS VL: DIVMTQSPLSLPVTPGEPASISCRSHQSIVHSNGNTYLQWYLQKPGQSPQLLIYKVSNRLYGVPDRFSGSGSGTDFTLKISRVEAEDVGVYYCFHGSHVPWTFGQGTKVEIK	0.103	1.09e-05	105000	0.352	6.64e-05	189000
VRDN-02064 (antibody, V domains shown) VH: QVQLQESGPGLVKPSETLSLTCTVSGYSITGGYLWNWIRQPPGKGLEWIGYISYDGTNNYKPSLKDRVTISRDTSKNQFSLKLSSVTAADTAVYYCARHGRVFFDYWGQGTLVTVSS VL: DIVMTQSPLSLPVTPGEPASISCRSSQSIVHSNGNTYLQWYLQKPGQSPQLLIYKVSNRLYGVPDRFSGSGSGTDFTLKISRVEAEDVGVYYCFHGSHVPWTFGQGTKVEIK	0.235	2.48e-05	106000	0.145	2.27e-05	157000
